In the DeepSol protein solubility set:

Assay: soluble on expression in E. coli; label from the status in PepcDB or PDB records

| Sequence | soluble on expression in E. coli |
| --- | --- |
| MGVCFSAIRVTGASSSRRSSQTKSKAAPTPIDTKASTKRRTGSIPCGKRTDFGYSKDFHDHYTIGKLLGHGQFGYTYVAIHRPNGDRVAVKRLDKSKMVLPIAVEDVKREVQILIALSGHENVVQFHNAFEDDDYVYIVMELCEGGELLDRILSKKGNRYSEKDAAVVVRQMLKVAGECHLHGLVHRDMKPENFLFKSAQLDSPLKATDFGLSDFIKPGKRFHDIVGSAYYVAPEVLKRRSGPESDVWSIGVITYILLCGRRPFWDRTEDGIFKEVLRNKPDFSRKPWATISDSAKDFVKKLLVKDPRARLTAAQALSHAWVREGGNATDIPVDISVLNNLRQFVRYSRLKQFALRALASTLDEAEISDLRDQFDAIDVDKNGVISLEEMRQALAKDLPWKLKDSRVAEILEAIDSNTDGLVDFTEFVAAALHVHQLEEHDSEKWQLRSRAAFEKFDLDKDGYITPEELRMHTGLRGSIDPLLDEADIDRDGKISLHEFRRLLRTASISSQRAPSPAGHRNLR | soluble |
| MGVLTTFISQKALVGGYDNTIEPGVVILSGATITCNVSIGQGTFINKSTVISHDVRIGRYCEVSPGAKVLGRAIIGDRTEIGANAVILPDVIVGADCKIGAGAVVTRNIDSHTTVAGVPARSITKSSNNAFKLKSKIRNLLYHIRIADFRKLREYNHYVFGLEHHHHHH | not soluble |
| MGYCVLHLEKAKGADSGMSAHIERTIVPKNIDPTRTHLNRELIMFPDGVCNRTLAIRHRLDTAGLKRKIGKNQVQAIRIVLSGTHEDMARMEDEGRLGEWCDDSVAWLRETYGAENLVSAVLHMDEETPHIHATVVPIVQGERRKQKKEENARRRYRTKAPAPRLCADEVMSRASLIRYQDTYAEHMEKYGLKRGVRGSLAKHLSTHEYYRSLITQGEDIQANIATLLSRETEASRIIAEAEQAKQELARIKAETKTVELKNSAARTATAALNGIGSLLGSNKMSRLESENRQLHGEVAELKESIEQMRTDMQKMRDSYTAEQLRVSEQHQREIGNFRRIIDKAKEWFPILAEFLRIERICRSVGLSERHTDELLQGKVLVVTGKLFSDEYKRSFTVEKVRLKVGREERDGKTVLDLLVDRVPIAAWFKEKWEKVSINRFRRNEMTIQKERGVRLLEHHHHHH | not soluble |
| MGYRNTGSPPPPQIGGLYGDRNPNPYGTVNLGGGSPYPGGLEEYNIRPAAPFSGLVGGSRSGYYGSTVGMRRGAVVPPMSSRKTKIPQTEYPPDYASNDLMNSFNGATNSAIPSLRELATYASRYGPAYLRERFGSHDSQLERMLYGGSGPQIPSRGGGIPIDYNMNIASNHWNRGIGSPMGIMSRDVDSYQHDDAAKANKKTTTGSPSTTSTRKPRKARKPTKKTVAAAPSSSSNTSTTAKPAKTVKTSEKSA | not soluble |
| MHAIILTMRVGIVGFGNMGQAFALCFSKKLGKENIIVTDKVQEKRNLATEMGIAFASDVKFLADNSDVVLVAVKPKDSQEVLQKLKDYKGIILSIMAGVSIEKMEKILGKDKKIVRVMPNVNVAVGSGVMAITDNGNLSEEERSKVEELLLSCGTLYRIEERLFDAFTALAGSGPAFVFSFIDALALAGVHQGFSYEQALRIALDTVMGSAKLLKEFQVNPNELIAKVTSPGGTTIEGIKYLEEKGFKGTVMECINRTSQKAKKLLEHHHHHH | not soluble |
| MHHHHHHGKPIPNPLLGLDSTENLYFQGIDPFTDVAAPSPAAAAEPGPAARPRSTRGQVRLPGGEFAMGDAFGEGYPADGETPVHTVRLRPFHIDETAVTNARFAAFVKATGHVTDAERFGSSAVFHLVVAAPDADVLGSAAGAPWWINVRGAHWRRPEGARSDITGRPNHPVVHVSWNDATAYARWAGKRLPTEAEWEYAARGGLAGRRYAWGDELTPGGRWRCNIWQGRFPHVNTAEDGHLSTAPVKSYRPNGHGLWNTAGNVWEWCSDWFSPTYYAESPTVDPHGPGTGAARVLRGGSYLCHDSYCNRYRVAARSSNTPDSSSGNLGFRCANDADLTSGSAAE | soluble |
| MHHHHHHSSGMNWTVDIPIDQLPSLPPLPTDLRTRLDAALAKPAAQQPTWPADQALAMRTVLESVPPVTVPSEIVRLQEQLAQVAKGEAFLLQGGDCAETFMDNTEPHIRGNVRALLQMAVVLTYGASMPVVKVARIAGQYAKPRSADIDALGLRSYRGDMINGFAPDAAAREHDPSRLVRAYANASAAMNLVRALTSSGLASLHLVHDWNREFVRTSPAGARYEALATEIDRGLRFMSACGVADRNLQTAEIYASHEALVLDYERAMLRLSDGDDGEPQLFDLSAHTVWIGERTRQIDGAHIAFAQVIANPVGVKLGPNMTPELAVEYVERLDPHNKPGRLTLVSRMGNHKVRDLLPPIVEKVQATGHQVIWQCDPMHGNTHESSTGFKTRHFDRIVDEVQGFFEVHRALGTHPGGIHVEITGENVTECLGGAQDISETDLAGRYETACDPRLNTQQSLELAFLVAEMLRD | soluble |
| MHHHHHHSSGRENLYFQGDLQATPGMFITSKKGHLSEMYQRVKKLGSGAYGEVLLCRDKVTHVERAIKIIRKTSVSTSSNSKLLEEVAVLKLLDHPNIMKLYDFFEDKRNYYLVMECYKGGELFDEIIHRMKFNEVDAAVIIKQVLSGVTYLHKHNIVHRDLKPENLLLESKEKDALIKIVDFGLSAVFENQKKMKERLGTAYYIAPEVLRKKYDEKCDVWSIGVILFILLAGYPPFGGQTDQEILRKVEKGKYTFDSPEWKNVSEGAKDLIKQMLQFDSQRRISAQQALEHPWIKEMCSKKESGIELPSLANAIENMRKFQNSQKLAQAALLYMASKLTSQEETKELTDIFRHIDKNGDGQLDRQELIDGYSKLSGEEVAVFDLPQIESEVDAILGAADFDRNGYIDYSEFVTVAMDRKSLLSKDKLESAFQKFDQDGNGKISVDELASVFGLDHLESKTWKEMISGIDSNNDGDVDFEEFCKMIQKLCSNNE | soluble |
| MHHHHHHSSGRENLYFQGESTRRLILVGRTGAGKSATGNSILGQRRFFSRLGATSVTRACTTGSRRWDKCHVEVVDTPDIFSSQVSKTDPGCEERGHCYLLSAPGPHALLLVTQLGRFTAQDQQAVRQVRDMFGEDVLKWMVIVFTRKEDLAGGSLHDYVSNTENRALRELVAECGGRVCAFDNRATGREQEAQVEQLLGMVEGLVLEHKGAHYSNEVYELAQVLRWAGPEERLRRVAERVAARVQR | soluble |
| MHHHHHHSSGRENLYFQGTYNISVVGLSGTEKEKGQCGIGKSCLCNRFVRPSADEFHLDHTSVLSTSDFGGRVVNNDHFLYWGEVSRSLEDCVECKMHIVEQTEFIDDQTFQPHRSTALQPYIKRAAATKLASAEKLMYFCTDQLGLEQDFEQKQMPDGKLLVDGFLLGIDVSRGMNRNFDDQLKFVSNLYNQLAKTKKPIVVVLTKCDEGVERYIRDAHTFALSKKNLQVVETSARSNVNVDLAFSTLVQLIDK | soluble |
| MHHHHHHSSGVDLGTENLYFQSMHGWGYGQDDGPSHWHKLYPIAQGDRQSPINIISSQAVYSPSLQPLELSYEACMSLSITNNGHSVQVDFNDSDDRTVVTGGPLEGPYRLKQFHFHWGKKHDVGSEHTVDGKSFPSELHLVHWNAKKYSTFGEAASAPDGLAVVGVFLETGDEHPSMNRLTDALYMVRFKGTKAQFSCFNPKCLLPASRHYWTYPGSLTTPPLSESVTWIVLREPICISERQMGKFRSLLFTSEDDERIHMVNNFRPPQPLKGRVVKASF | soluble |
| MHHHHHHSSGVDLGTENLYFQSMNLPEHWTDMNHQLFCMVQLEPGQSEYNTIKDKFTRTCSSYAIEKIERIQNAFLWQSYQVKKRQMDIKNDHKNNERLLFHGTDADSVPYVNQHGFNRSCAGKNAVSYGKGTYFAVDASYSAKDTYSKPDSNGRKHMYVVRVLTGVFTKGRAGLVTPPPKNPHNPTDLFDSVTNNTRSPKLFVVFFDNQAYPEYLITFTA | soluble |
| MHHISLTPFGRQPVTAGILASQRLAEARSPLPEIDKWALFADLRTARARFGVSDRDLAVLYALLSFLPGRVLTDAAPLVVFPSNATLSDRAHGMAESTLRRHLAALVEAGLVARRDSANGKRYAHRNRAGELVTAYGFDLRPLLVRAAEIAETAAALEAEAEAMARARTALVLKLRDATKLAAYADPEGRAAGIEPRLMPIRRALRRRLTLADLAEMARTLDLVLGDIRRTLALRAAEMDGTVGRIERHHTESKTESSDLEGGHACGKTSGEAEKDCRNIGGESPDEKANRPSPNRAEPDEARPEELASLEINDNQRPAPTLPLGLVLKACPDLEPYAPEIRNWRDLTAAASRLRGMMGITPSAWEEAKAEMGAETASVALAAILQRFASIRNPGGYLRALTRRASEGAFSPTPMIMALLAETREA | not soluble |
| MHIDNEDALFDWLSDELSPITDADPNALAKYVLALVKKPDKGHDELKAFTNEQLNVFLTDHTAPFVDKVFEALTSKSYMPASTAPTSASATAPDLKKEKAPAEKPSKPTAPPGVQKSSSSPSASKAESRPLRKRISPPPSENREKEKQSRDKERRRSRSPRDRRGRATTSRSGRTSSSDRDRHSKRRSRSRSRSSSGSRTPPYKSRSSRRRCKDFEERGYCIRGDQCPYYHGRDPVVVDENALGSMVPLPATAPNFSLPPPGYNPLNPPPPGVVVAAGEYNPEAPALNNYSIPPPPIPGQWQQPHVAAQYVPQSVSSYSQPPPAAAQGVVTQPGSFRGAPRGRGNIRGRGGFARGGFTGAINRDNCTLQVAKIPPEMNTIAKLNEHFATFGTVDNIQVRYNGEIDSALVTYASKFDAGKAYKSPTPVLNNRFIKVFWHNPGGEGSENATGKPSSPTSPPKPVEKPKIATVQESKFVSVAAQNYRKQIQDAKERLTKEKSILSTLVQAQNQHNIILDKWMVKQKELLIKARTSTDETDKKNATKLVKHLHKKIKACKEEVDGILLKISEKSMVVDEIAAQIEELKNPQKSDDSTRKRKAGSDGDEPQSKMSSVVIVRGVTDELVTDLMAHMEKFGEVFDHSVKADDDGLITAVFPFRKTGDALKAMADGKVLNGVDLEMELKTERIEEIPSTDTNMSADQLLAAIPSNLESDEEDDLLND | not soluble |
| MHIISLLLENEPGALSRVVGLFSQRNYNIESLTVAPTEDPTLSRLTLTTVGHDEVIEQITKNLNKLIEVVKLVDL | soluble |
| MHILDIWHRRNSRSYIAHLRSLGIRIGDGCIFRDPLTTRIDVSRPALVSIGSNVDMNTYFQILTHDWASFVFRNKYHDFVNSSGRVEIGSNIYIGTNVIVLRGVTIGDNCVIGAGSVVTHDIPANSVAVGAPCRVVCSLEHHHHHH | not soluble |
| MHKNGKFIPLLALGFTFFLSGCDYFADKHLVEEMKEQQKEQETKINLLEKQQKEQEAKINLLEKQQATIINTTKKVTEVVGRVERKQRLFDYTELDPSQTHYFIINNGNIGLAGRILSIEPIDNGSVIHLDLVNLLSIPVSNLAFNMTWGTKKPSEAKDLPRWKQLLLNTKMDSTIELLPGAWTNVTLTLKGVSPNNLKYLKIGIDMENVIFDSIQPINDTKKKPKK | not soluble |
| MHLHFTPRQIVEKLDQYIIGQKDAKKAVAVALRNRYRRSKLAENLRDEIAPKNILMIGPTGVGKTEVARRMAKLVGAPFIKVEATKFTEVGYVGRDVESMVRDLVETSVRIVKEEMVVKVQDKAEEQANQRLVEILVPSPEKQSGFKNPLEMLFGGTQNSNQTTDSQEDVEIEKKRQDVERKLAAGLLEDEIVSIEVTEQQSSMFDMLQGTGMEQMGMNFQDALGSFMPKKTKKRKLSVKEARKVLTNEEAQRLIDMDEVTQEAVYRAEQLGIIFIDEIDKIAGKQSNSVDVSREGVQRDILPIVEGSNVATKYGSVKTDYILFVAAGAFHMSKPSDLIPELQGRFPIRVELTKLSTDDFVKILIEPDNALIKQYMALLATEGIEIEFSDEAIRKIAEIAYQVNQDTDNIGARRLHTIMEKLLEDLSFEASEITLEKITITPQYVEEKLATIAKNKDVSQFIL | not soluble |
